Laboratory results: patent US8785135B2, “Mutant G-protein coupled receptors and methods for selecting them” (Heptares Therapeutics Limited, priority 2007, dated 2014)

Experiment: Thermostability of NTR and mutants (3H-neurotensin binding)
Format: physicochemical
Conditions: for thermostability, 3H-neurotensin (agonist) binding after the heating step: heated in the absence of the agonist
Experimental: FIG. 12 Flow chart showing the two different assay formats of ligand (+) and ligand (−) used to determine receptor thermostability.
• 1. 340 site-directed mutants have been made between residues 61-400 of NTR. • 2. Initially, all of these mutants were assayed for thermostability using an assay measuring ^3H-neurotensin (agonist) binding after the heating step. […] Mutants tested for thermostability by heating in the absence of the agonist were re-tested using a slightly different assay where the mutants were heated in the presence of ^3H-neurotensin (Ligand(+) format in FIG. 12). […] All of these also have increased thermostability. • 5. Preferred combinations are • a. Nag7m F358A+A86L+I260A+F342A Tm 51° C. (neurotensin bound) • b. Nag7n F358A+H103A+I260A+F342A Tm 51° C. (neurotensin bound) • Wildtype NTR has a Tm of 35° C. with neurotensin bound.

Molecule	thermostability, 3H-neurotensin (agonist) binding after the heating step	Tm (neurotensin bound) [°C]
D113A: NTR point mutant (protein, UniProt P20789 1-424, looked up, variant D113A) Neurotensin receptor type 1: MHLNSSVPQGTPGEPDAQPFSGPQSEMEATFLALSLSNGSGNTSESDTAGPNSDLDVNTDIYSKVLVTAIYLALFVVGTVGNSVTAFTLARKKSLQSLQSTVHYHLGSLALSALLILLLAMPVELYNFIWVHHPWAFGDAGCRGYYFLRDACTYATALNVASLSVERYLAICHPFKAKTLMSRSRTKKFISAIWLASALLAIPMLFTMGLQNRSGDGTHPGGLVCTPIVDTATVKVVIQVNTFMSFLFPMLVISILNTVIANKLTVMVHQAAEQGRVCTVGTHNGLEHSTFNMTIEPGRVQALRHGVLVLRAVVIAFVVCWLPYHVRRLMFCYISDEQWTTFLFDFYHYFYMLTNALFYVSSAINPILYNLVSANFRQVFLSTLACLCPGWRHRRKKRPTFSRKPNSMSSNHAFSTSATRETLY	small but significant increase in thermostability	–
G209A: NTR point mutant (protein, UniProt P20789 1-424, looked up, variant G209A) Neurotensin receptor type 1: MHLNSSVPQGTPGEPDAQPFSGPQSEMEATFLALSLSNGSGNTSESDTAGPNSDLDVNTDIYSKVLVTAIYLALFVVGTVGNSVTAFTLARKKSLQSLQSTVHYHLGSLALSDLLILLLAMPVELYNFIWVHHPWAFGDAGCRGYYFLRDACTYATALNVASLSVERYLAICHPFKAKTLMSRSRTKKFISAIWLASALLAIPMLFTMALQNRSGDGTHPGGLVCTPIVDTATVKVVIQVNTFMSFLFPMLVISILNTVIANKLTVMVHQAAEQGRVCTVGTHNGLEHSTFNMTIEPGRVQALRHGVLVLRAVVIAFVVCWLPYHVRRLMFCYISDEQWTTFLFDFYHYFYMLTNALFYVSSAINPILYNLVSANFRQVFLSTLACLCPGWRHRRKKRPTFSRKPNSMSSNHAFSTSATRETLY	small but significant increase in thermostability	–
T207A: NTR point mutant (protein, UniProt P20789 1-424, looked up, variant T207A) Neurotensin receptor type 1: MHLNSSVPQGTPGEPDAQPFSGPQSEMEATFLALSLSNGSGNTSESDTAGPNSDLDVNTDIYSKVLVTAIYLALFVVGTVGNSVTAFTLARKKSLQSLQSTVHYHLGSLALSDLLILLLAMPVELYNFIWVHHPWAFGDAGCRGYYFLRDACTYATALNVASLSVERYLAICHPFKAKTLMSRSRTKKFISAIWLASALLAIPMLFAMGLQNRSGDGTHPGGLVCTPIVDTATVKVVIQVNTFMSFLFPMLVISILNTVIANKLTVMVHQAAEQGRVCTVGTHNGLEHSTFNMTIEPGRVQALRHGVLVLRAVVIAFVVCWLPYHVRRLMFCYISDEQWTTFLFDFYHYFYMLTNALFYVSSAINPILYNLVSANFRQVFLSTLACLCPGWRHRRKKRPTFSRKPNSMSSNHAFSTSATRETLY	small but significant increase in thermostability	–
L205A: NTR point mutant (protein, UniProt P20789 1-424, looked up, variant L205A) Neurotensin receptor type 1: MHLNSSVPQGTPGEPDAQPFSGPQSEMEATFLALSLSNGSGNTSESDTAGPNSDLDVNTDIYSKVLVTAIYLALFVVGTVGNSVTAFTLARKKSLQSLQSTVHYHLGSLALSDLLILLLAMPVELYNFIWVHHPWAFGDAGCRGYYFLRDACTYATALNVASLSVERYLAICHPFKAKTLMSRSRTKKFISAIWLASALLAIPMAFTMGLQNRSGDGTHPGGLVCTPIVDTATVKVVIQVNTFMSFLFPMLVISILNTVIANKLTVMVHQAAEQGRVCTVGTHNGLEHSTFNMTIEPGRVQALRHGVLVLRAVVIAFVVCWLPYHVRRLMFCYISDEQWTTFLFDFYHYFYMLTNALFYVSSAINPILYNLVSANFRQVFLSTLACLCPGWRHRRKKRPTFSRKPNSMSSNHAFSTSATRETLY	small but significant increase in thermostability	–
A155L: NTR point mutant (protein, UniProt P20789 1-424, looked up, variant A155L) Neurotensin receptor type 1: MHLNSSVPQGTPGEPDAQPFSGPQSEMEATFLALSLSNGSGNTSESDTAGPNSDLDVNTDIYSKVLVTAIYLALFVVGTVGNSVTAFTLARKKSLQSLQSTVHYHLGSLALSDLLILLLAMPVELYNFIWVHHPWAFGDAGCRGYYFLRDACTYLTALNVASLSVERYLAICHPFKAKTLMSRSRTKKFISAIWLASALLAIPMLFTMGLQNRSGDGTHPGGLVCTPIVDTATVKVVIQVNTFMSFLFPMLVISILNTVIANKLTVMVHQAAEQGRVCTVGTHNGLEHSTFNMTIEPGRVQALRHGVLVLRAVVIAFVVCWLPYHVRRLMFCYISDEQWTTFLFDFYHYFYMLTNALFYVSSAINPILYNLVSANFRQVFLSTLACLCPGWRHRRKKRPTFSRKPNSMSSNHAFSTSATRETLY	small but significant increase in thermostability	–
V268A: NTR point mutant (protein, UniProt P20789 1-424, looked up, variant V268A) Neurotensin receptor type 1: MHLNSSVPQGTPGEPDAQPFSGPQSEMEATFLALSLSNGSGNTSESDTAGPNSDLDVNTDIYSKVLVTAIYLALFVVGTVGNSVTAFTLARKKSLQSLQSTVHYHLGSLALSDLLILLLAMPVELYNFIWVHHPWAFGDAGCRGYYFLRDACTYATALNVASLSVERYLAICHPFKAKTLMSRSRTKKFISAIWLASALLAIPMLFTMGLQNRSGDGTHPGGLVCTPIVDTATVKVVIQVNTFMSFLFPMLVISILNTVIANKLTVMAHQAAEQGRVCTVGTHNGLEHSTFNMTIEPGRVQALRHGVLVLRAVVIAFVVCWLPYHVRRLMFCYISDEQWTTFLFDFYHYFYMLTNALFYVSSAINPILYNLVSANFRQVFLSTLACLCPGWRHRRKKRPTFSRKPNSMSSNHAFSTSATRETLY	small but significant increase in thermostability	–
Y351A: NTR point mutant (protein, UniProt P20789 1-424, looked up, variant Y351A) Neurotensin receptor type 1: MHLNSSVPQGTPGEPDAQPFSGPQSEMEATFLALSLSNGSGNTSESDTAGPNSDLDVNTDIYSKVLVTAIYLALFVVGTVGNSVTAFTLARKKSLQSLQSTVHYHLGSLALSDLLILLLAMPVELYNFIWVHHPWAFGDAGCRGYYFLRDACTYATALNVASLSVERYLAICHPFKAKTLMSRSRTKKFISAIWLASALLAIPMLFTMGLQNRSGDGTHPGGLVCTPIVDTATVKVVIQVNTFMSFLFPMLVISILNTVIANKLTVMVHQAAEQGRVCTVGTHNGLEHSTFNMTIEPGRVQALRHGVLVLRAVVIAFVVCWLPYHVRRLMFCYISDEQWTTFLFDFYHYFAMLTNALFYVSSAINPILYNLVSANFRQVFLSTLACLCPGWRHRRKKRPTFSRKPNSMSSNHAFSTSATRETLY	small but significant increase in thermostability	–
A120L: NTR point mutant (protein, UniProt P20789 1-424, looked up, variant A120L) Neurotensin receptor type 1: MHLNSSVPQGTPGEPDAQPFSGPQSEMEATFLALSLSNGSGNTSESDTAGPNSDLDVNTDIYSKVLVTAIYLALFVVGTVGNSVTAFTLARKKSLQSLQSTVHYHLGSLALSDLLILLLLMPVELYNFIWVHHPWAFGDAGCRGYYFLRDACTYATALNVASLSVERYLAICHPFKAKTLMSRSRTKKFISAIWLASALLAIPMLFTMGLQNRSGDGTHPGGLVCTPIVDTATVKVVIQVNTFMSFLFPMLVISILNTVIANKLTVMVHQAAEQGRVCTVGTHNGLEHSTFNMTIEPGRVQALRHGVLVLRAVVIAFVVCWLPYHVRRLMFCYISDEQWTTFLFDFYHYFYMLTNALFYVSSAINPILYNLVSANFRQVFLSTLACLCPGWRHRRKKRPTFSRKPNSMSSNHAFSTSATRETLY	small but significant increase in thermostability	–
P399A: NTR point mutant (protein, UniProt P20789 1-424, looked up, variant P399A) Neurotensin receptor type 1: MHLNSSVPQGTPGEPDAQPFSGPQSEMEATFLALSLSNGSGNTSESDTAGPNSDLDVNTDIYSKVLVTAIYLALFVVGTVGNSVTAFTLARKKSLQSLQSTVHYHLGSLALSDLLILLLAMPVELYNFIWVHHPWAFGDAGCRGYYFLRDACTYATALNVASLSVERYLAICHPFKAKTLMSRSRTKKFISAIWLASALLAIPMLFTMGLQNRSGDGTHPGGLVCTPIVDTATVKVVIQVNTFMSFLFPMLVISILNTVIANKLTVMVHQAAEQGRVCTVGTHNGLEHSTFNMTIEPGRVQALRHGVLVLRAVVIAFVVCWLPYHVRRLMFCYISDEQWTTFLFDFYHYFYMLTNALFYVSSAINPILYNLVSANFRQVFLSTLACLCPGWRHRRKKRATFSRKPNSMSSNHAFSTSATRETLY	small but significant increase in thermostability	–
L72A: NTR point mutant (protein, UniProt P20789 1-424, looked up, variant L72A) Neurotensin receptor type 1: MHLNSSVPQGTPGEPDAQPFSGPQSEMEATFLALSLSNGSGNTSESDTAGPNSDLDVNTDIYSKVLVTAIYAALFVVGTVGNSVTAFTLARKKSLQSLQSTVHYHLGSLALSDLLILLLAMPVELYNFIWVHHPWAFGDAGCRGYYFLRDACTYATALNVASLSVERYLAICHPFKAKTLMSRSRTKKFISAIWLASALLAIPMLFTMGLQNRSGDGTHPGGLVCTPIVDTATVKVVIQVNTFMSFLFPMLVISILNTVIANKLTVMVHQAAEQGRVCTVGTHNGLEHSTFNMTIEPGRVQALRHGVLVLRAVVIAFVVCWLPYHVRRLMFCYISDEQWTTFLFDFYHYFYMLTNALFYVSSAINPILYNLVSANFRQVFLSTLACLCPGWRHRRKKRPTFSRKPNSMSSNHAFSTSATRETLY	small but significant increase in thermostability	–
Nag7m: NTR mutant F358A+A86L+I260A+F342A (protein) TSESDTAGPNSDLDVNTDIYSKVLVTAIYLALFVVGTVGNSVTLFTLARKKSLQSLQSTVHYHLGSLALSDLLILLLAMPVELYNFIWVHHPWAFGDAGCRGYYFLRDACTYATALNVASLSVERYLAICHPFKAKTLMSRSRTKKFISAIWLASALLAIPMLFTMGLQNRSGDGTHPGGLVCTPIVDTATVKVVIQVNTFMSFLFPMLVISILNTVAANKLTVMVHQAAEQGRVCTVGTHNGLEHSTFNMTIEPGRVQALRHGVLVLRAVVIAFVVCWLPYHVRRLMFCYISDEQWTTALFDFYHYFYMLTNALAYVSSAINPILYNLVSANFRQVFLSTLACLCPGWRHRRKKRPTFSRKPNSMSSNHAFSTSATRETLY	–	51
